We go through one protein from article doi:10.1101/2020.12.15.422856 (bioRxiv, 2020).

This data set deals with the molecule itself. The data set can be described thus: SEC.

B1: Mer2 (wild-type, full-length) (natural protein)
chain: MVARGRTDEISTDVSEANSEHSLMITETSSPFRSIFSHSGKVANAGALEESDKQILEWAGKLELESMELRENSDKLIKVLNENSKTLCKSLNKFNQLLEQDAATNGNVKTLIKDLASQIENQLDKVSTAMLSKGDEKKTKSDSSYRQVLVEEISRYNSKITRHVTNKQHETEKSMRCTQEMLFNVGSQLEDVHKVLLSLSKDMHSLQTRQTALEMAFREKADHAYDRPDVSLNGTTLLHDMDEAHDKQRKKSVPPPRMMVTRSMKRRRSSSPTLSTSQNHNSEDNDDASHRLKRAARTIIPWEELRPDTLESEL
On to B1, for which the binding result is listed as “binds”.
